Patent US20200231691A1 (Hoffmann-La Roche, published 2020)

How the values were obtained:
murine OX40 [1] = biological target: T1, murine OX40 (murine, UniProt P47741 20-272); assay: flow cytometry, activated murine OX40+ CD8+ T cells
T1 construct: also called muOX40
T1 sequence: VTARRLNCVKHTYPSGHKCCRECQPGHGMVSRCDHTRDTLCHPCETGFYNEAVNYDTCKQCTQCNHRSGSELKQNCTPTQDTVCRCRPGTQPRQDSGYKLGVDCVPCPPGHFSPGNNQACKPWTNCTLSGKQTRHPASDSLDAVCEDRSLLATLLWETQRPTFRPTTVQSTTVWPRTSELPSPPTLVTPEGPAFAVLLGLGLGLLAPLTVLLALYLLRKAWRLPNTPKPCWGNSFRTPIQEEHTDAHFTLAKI
Experimental: (§1) For labeling cells were harvested, washed with pre-warmed (37° C.) DPBS and adjusted to a cell density of 1×10⁷ cells/mL in DPBS. eFluor670 cell proliferation dye (eBioscience, Cat.-No. 65-0840-85) was added to the suspension of naïve splenocytes at a final concentration of 2.5 μM and a final cell density of 0.5×10⁷ cells/mL in DPBS. Cells were then incubated for 10 min at room temperature in the dark. To stop labeling reaction, 4 mL heat inactivated FBS were added and cells were washed three times with T cell medium. A mixture of 1×10⁵ resting eFluor670 labeled splenocytes and 1×10⁵ unlabeled activated splenocytes were then added to wells of round-bottomed suspension 96-well plates (Greiner bio-one, cellstar, Cat. No. 650185).
(§2) For discrimination between live and dead cells, samples were stained with Zombie Aqua Viability Dye (Biolegend, Cat. No. 423102) in DPBS for 10 minutes at room temperature. Cells were then washed once with FACS buffer and subsequently stained for 90 minutes at 4° C. in the dark in 50 μL/well 4° C. […] After washing three times with excess FACS buffer, cells were stained for 30 minutes at 4° C. in the dark in 25 μL/well 4° C.
(§3) Plates were finally resuspended in 85 μL/well FACS buffer and acquired the same day using 4-laser LSR-II cytometer (BD Bioscience with DIVA software).

murine OX40 [2] = biological target: T1, murine OX40; assay: flow cytometry, activated murine OX40+ CD4+ T cells
Experimental: as §1, §2, §3

murine FAP = biological target: T2, murine FAP (murine, UniProt P97321 1-761); assay: flow cytometry on CT26muFAP cells, which stably express murine FAP
T2 construct: whole, on cells; CT26muFAP served as the muEpCAM-negative specificity control cell line; also called muFAP; CT26muFAP cells
T2 sequence (looked up): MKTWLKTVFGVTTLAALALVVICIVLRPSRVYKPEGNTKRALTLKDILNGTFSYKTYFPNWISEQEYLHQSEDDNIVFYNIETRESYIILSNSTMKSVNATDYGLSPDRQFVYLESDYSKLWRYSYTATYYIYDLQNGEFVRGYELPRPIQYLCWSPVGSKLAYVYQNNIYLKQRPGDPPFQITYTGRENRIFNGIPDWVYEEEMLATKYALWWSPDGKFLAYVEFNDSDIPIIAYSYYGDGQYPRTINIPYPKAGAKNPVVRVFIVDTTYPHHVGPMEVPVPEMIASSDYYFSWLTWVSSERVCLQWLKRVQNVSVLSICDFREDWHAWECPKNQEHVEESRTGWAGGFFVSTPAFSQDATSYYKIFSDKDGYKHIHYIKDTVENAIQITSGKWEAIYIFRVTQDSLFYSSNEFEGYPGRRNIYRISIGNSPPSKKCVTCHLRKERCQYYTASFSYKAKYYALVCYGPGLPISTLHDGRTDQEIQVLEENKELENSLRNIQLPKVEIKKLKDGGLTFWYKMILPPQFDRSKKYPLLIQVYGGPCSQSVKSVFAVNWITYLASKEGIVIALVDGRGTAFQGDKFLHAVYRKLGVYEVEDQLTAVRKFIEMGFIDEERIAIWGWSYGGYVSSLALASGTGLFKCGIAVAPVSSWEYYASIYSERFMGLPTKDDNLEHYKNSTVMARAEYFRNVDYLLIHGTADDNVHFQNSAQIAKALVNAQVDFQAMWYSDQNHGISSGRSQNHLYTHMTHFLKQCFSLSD
Experimental: (§4) The binding to cell surface murine EpCAM was analysed using mouse EpCAM-positive CT26muEpCAM c125 cells, which stably expresses murine EpCAM. The specificity of binding was analysed by determination of binding to muEpCAM-negative cell line CT26muFAP, which stably expresses murine FAP.
(§5) For analysis of binding of the antigen binding molecules, 0.5×10⁵ CT26muEpCAM or 0.5×10⁵ CT26muFAP cells were added to wells of round-bottomed suspension cell 96-well plates (greiner bio-one, cellstar, Cat. No. 650185). For discrimination of live and dead cells, samples were stained with Zombie Aqua Viability Dye (Biolegend, Cat. No 423102) in PBS for 10 minutes at room temperature. Cells were then washed once with FACS buffer and subsequently stained for 90 minutes at 4° C. in the dark in 50 μL/well 4° C.
(§6) Plates were finally resuspended in 85 μL/well FACS-buffer and acquired the same day using 4-laser LSR-II cytometer (BD Bioscience with DIVA software).

murine EpCAM = biological target: T3, murine EpCAM (murine, UniProt Q99JW5 24-315); assay: flow cytometry, muEpCAM+ CT26muEpCAM cells
T3 construct: Stably expressed on CT26muEpCAM cl25 cells; also called muEpCAM; CT26muEpCAM cells
T3 sequence: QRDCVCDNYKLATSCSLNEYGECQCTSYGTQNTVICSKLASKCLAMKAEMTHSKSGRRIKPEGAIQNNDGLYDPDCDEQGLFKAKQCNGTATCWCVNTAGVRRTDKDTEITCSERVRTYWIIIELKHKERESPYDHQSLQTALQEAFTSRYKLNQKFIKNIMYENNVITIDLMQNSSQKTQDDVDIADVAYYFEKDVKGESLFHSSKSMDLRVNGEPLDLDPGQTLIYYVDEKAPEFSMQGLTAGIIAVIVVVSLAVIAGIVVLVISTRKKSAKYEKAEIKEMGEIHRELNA
Experimental: as §4, §5, §6

EC50 (murine OX40 [1]): 0.82 nM
EC50 (murine OX40 [2]): 1.47 nM
binding result (murine FAP): no binding
EC50 (murine EpCAM): 82.5 nM
B1: bispecific, tetravalent anti-murine OX40, monovalent anti-murine EpCAM 4+1 molecule (muOX40 OX86/muEpCAM G8.8 DAPG 4+1) (bispecific antibody, mouse IgG1, kappa)
heavy 1: QVQLKESGPGLVQPSQTLSLTCTVSGFSLTGYNLHWVRQPPGKGLEWMGRMRYDGDTYYNSVLKSRLSISRDTSKNQVFLKMNSLQTDDTAIYYCTRDGRGDSFDYWGQGVMVTVSSAKTTPPSVYPLAPGSAAQTNSMVTLGCLVKGYFPEPVTVTWNSGSLSSGVHTFPAVLQSDLYTLSSSVTVPSSTWPSQTVTCNVAHPASSTKVDKKIVPRDCGGGGSGGGGSQVQLKESGPGLVQPSQTLSLTCTVSGFSLTGYNLHWVRQPPGKGLEWMGRMRYDGDTYYNSVLKSRLSISRDTSKNQVFLKMNSLQTDDTAIYYCTRDGRGDSFDYWGQGVMVTVSSAKTTPPSVYPLAPGSAAQTNSMVTLGCLVKGYFPEPVTVTWNSGSLSSGVHTFPAVLQSDLYTLSSSVTVPSSTWPSQTVTCNVAHPASSTKVDKKIVPRDCGCKPCICTVPEVSSVFIFPPKPKDVLTITLTPKVTCVVVAISKDDPEVQFSWFVDDVEVHTAQTKPREEQINSTFRSVSELPIMHQDWLNGKEFKCRVNSAAFGAPIEKTISKTKGRPKAPQVYTIPPPKEQMAKDKVSLTCMITNFFPEDITVEWQWNGQPAENYDNTQPIMDTDGSYFVYSDLNVQKSNWEAGNTFTCSVLHEGLHNHHTEKSLSHSPGGGGGSGGGGSGGGGSGGGGSDIQMTQSPASLSASLGETVSIECLASEGISNDLAWYQQKSGKSPQLLIYATSRLQDGVPSRFSGSGSGTRYSLKISGMQPEDEADYFCQQSYKYPWTFGGGTKLELK
heavy 2: QVQLKESGPGLVQPSQTLSLTCTVSGFSLTGYNLHWVRQPPGKGLEWMGRMRYDGDTYYNSVLKSRLSISRDTSKNQVFLKMNSLQTDDTAIYYCTRDGRGDSFDYWGQGVMVTVSSAKTTPPSVYPLAPGSAAQTNSMVTLGCLVKGYFPEPVTVTWNSGSLSSGVHTFPAVLQSDLYTLSSSVTVPSSTWPSQTVTCNVAHPASSTKVDKKIVPRDCGGGGSGGGGSQVQLKESGPGLVQPSQTLSLTCTVSGFSLTGYNLHWVRQPPGKGLEWMGRMRYDGDTYYNSVLKSRLSISRDTSKNQVFLKMNSLQTDDTAIYYCTRDGRGDSFDYWGQGVMVTVSSAKTTPPSVYPLAPGSAAQTNSMVTLGCLVKGYFPEPVTVTWNSGSLSSGVHTFPAVLQSDLYTLSSSVTVPSSTWPSQTVTCNVAHPASSTKVDKKIVPRDCGCKPCICTVPEVSSVFIFPPKPKDVLTITLTPKVTCVVVAISKDDPEVQFSWFVDDVEVHTAQTKPREEQINSTFRSVSELPIMHQDWLNGKEFKCRVNSAAFGAPIEKTISKTKGRPKAPQVYTIPPPKKQMAKDKVSLTCMITNFFPEDITVEWQWNGQPAENYKNTQPIMKTDGSYFVYSKLNVQKSNWEAGNTFTCSVLHEGLHNHHTEKSLSHSPGGGGGSGGGGSGGGGSGGGGSEVQLAESGGGLVQPGRSMKLSCAASGFTFSNFPMAWVRQAPTKGLEWVATISTSGGSTYYRDSVKGRFTISRDNAKSTLYLQMNSLRSEDTATYYCTRTLYILRVFYFDYWGQGVMVTVSS
light: DIVMTQGALPNPVPSGESASITCRSSQSLVYKDGQTYLNWFLQRPGQSPQLLTYWMSTRASGVSDRFSGSGSGTYFTLKISRVRAEDAGVYYCQQVREYPFTFGSGTKLEIKRADAAPTVSIFPPSSEQLTSGGASVVCFLNNFYPKDINVKWKIDGSERQNGVLNSWTDQDSKDSTYSMSSTLTLTKDEYERHNSYTCEATHKTSTSPIVKSFNRNEC
notes: muIgG1 DAPG with DDKK heterodimerisation; also called 4+1 muEpCAM; 4 + 1 anti-muOX40, anti-muEpCAM
